For 21 molecules, Kd, IC50 and EC50 results are on record in paper PMC10531517, “Rational Design of Novel Peptidomimetics against Influenza A Virus: Biological and Computational Studies” (International Journal of Molecular Sciences, 2023).

The target in test [1] is T1, HA (H1N1 hemagglutinin, Cat No.: Z03181, GenScript) (Influenza A virus, UniProt C3W5S1).
T1 construct: Full-length recombinant HA (His-Tag) was immobilized; purchased GenScript Z03181-100
Kind of test: biochemical. In kind it is binding.

Test [2] concerns the target Full-length recombinant HA (His-Tag), H1N1 hemagglutinin, GenScript Cat No. Z03181 (influenza A virus H1N1). Kind of test: MST; labelled His-HA (NT647-HA) held constant, compound in 16 1:1 serial dilutions from 50 µM, PBS, 10 min at rt, standard-treated capillaries, Monolith NT.115pico, 10% LED power, high MST power, triplicate.
Test [3] has the same target. Kind of test: SPR. On the technique in general: SPR reads the build-up and loss of mass on a sensor chip optically.
Test [4] concerns A/Parma/24/09 H1N1 virus. Set-up: method as in Scala et al. (2017) [23]. To be noted: read-out: IC50 (peptide concentration that inhibits virus-induced hemagglutination by 50%), reference peptides, ref Scala et al. (2017) [23]; cited from earlier work.
For test [5], the system named is A/Parma/24/09 H1N1 virus. Details: method as in Scala et al. (2017) [23]. To be noted: read-out: EC50 (concentration that reduced cytopathic effect by 50%); reference peptides; ref Scala et al. (2017) [23]; cited from earlier work. In general terms: Cytopathic effects are the visible damage that an infection or toxin causes in cultured cells.

*1 amine or outer side, *2 acyl side, *3 side chain or, on linkers, in order; H or OH if unused. Where a SMILES comes first, the peptide text is derived from it. [ ]: non-standard residue; d: D form. N(2-mercaptoethyl)Gly = O=C(CN(CCS[*:3])[*:1])[*:2]; NMeS = CN[C@@H](CO)C(=O)O

T1 sequence (C3W5S1 entry or part of it, added parts left off): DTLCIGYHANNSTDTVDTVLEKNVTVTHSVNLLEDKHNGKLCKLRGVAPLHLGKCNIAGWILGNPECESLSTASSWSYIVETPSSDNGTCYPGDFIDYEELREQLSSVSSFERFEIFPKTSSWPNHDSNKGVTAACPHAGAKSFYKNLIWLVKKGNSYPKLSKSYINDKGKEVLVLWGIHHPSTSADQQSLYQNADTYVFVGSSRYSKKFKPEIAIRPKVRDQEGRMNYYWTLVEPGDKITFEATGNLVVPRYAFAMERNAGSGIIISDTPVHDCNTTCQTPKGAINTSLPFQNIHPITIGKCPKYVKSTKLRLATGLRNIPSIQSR

By Kd is commonly meant the free concentration of one partner at which half of the binding sites on the other are occupied at equilibrium, for simple one-to-one binding. In test [1], `CC(=O)N[C@@H](CO)C(=O)N[C@@H](CCCCN)C(=O)N[C@@H](Cc1c[nH]cn1)C(=O)N(C)[C@@H](CO)C(N)=O` [Peptide 10, SKH(N-Me)S] (Ac-SKH[NMeS]-NH2) displayed a Kd of 3.04 ± 0.85 µM. On the same count and under the same terms, as for `CC(=O)N[C@@H](CO)C(=O)N[C@@H](CC(C)C)C(=O)N[C@@H](CC(=O)O)C(=O)N(CCS)CC(N)=O` [Peptide 14, SLDNhC] (Ac-SLD[N(2-mercaptoethyl)Gly]-NH2), the figure is 0.0459 ± 0.01 µM; as for `CC(=O)N[C@@H](CO)C(=O)N[C@@H](CCCCN)C(=O)N(CC(=O)N[C@@H](CO)C(N)=O)Cc1c[nH]cn1` [Peptide 17, SKNHS], 3.07 ± 0.79 µM. As to (N-Me)SKHS (peptide), the equilibrium dissociation constant (Kd) in test [2] is 336 nM; in test [3], 4.19 µM.

As to (N-Me)SLDC (peptide), the values for the dissociation constant (Kd) in test [2] and in test [3] were 24800 nM and 7.6 µM, respectively.

On to NhSKHS (peptide), for which the dissociation constant Kd in test [2] was found to be 7400 nM; in test [3] it was 2.09 µM. For NhSLDC (peptide), in that order: 67.2 nM and 6.55 µM.

As to S(N-Me)KHS (peptide), the equilibrium dissociation constant (Kd) turned out to be 7930 nM in test [2] and 8.33 µM in test [3]. For S(N-Me)LDC (peptide), in that order: 32.5 nM and 0.58 µM. For SK(N-Me)HS (peptide), in that order: 52.8 nM and 1.26 µM. For the molecule SKH(N-Me)S (peptide), the Kd in test [2] was 3040 nM. With SKHNhS (peptide), the Kd in test [2] is 49.1 nM; in test [3], 0.43 µM. As for SKHS [Peptide 2], in the test on A/Parma/24/09 H1N1 virus [4], the IC50 was 1.5 ± 0.7 nM.

On to SKNHS (peptide), for which the Kd in test [2] was found to be 3070 nM. On the same count and under the same terms, with SL(N-Me)DC (peptide) the figure was 8800 nM. On to SLD(N-Me)C (peptide), for which the results for the Kd in test [2] and in test [3] were 142 nM and 3.8 µM, respectively. Take SLDC [Peptide 1]: the EC50 in the test on A/Parma/24/09 H1N1 virus [5] is 4.6 pM. Moreover, the IC50 in the test on A/Parma/24/09 H1N1 virus [4] was 6 ± 3 nM. As to SLDNhC (peptide), the Kd in test [2] turned out to be 45.9 nM. As for SLNDC (peptide), the Kd in test [2] was 1340 nM.

In the case of SNKHS (peptide), the Kd in test [2] worked out at 39.1 nM; in test [3] it was 1.7 µM.

With SNLDC (peptide), the dissociation constant (Kd) in test [2] amounted to 701 nM; in test [3], 3.81 µM.
